According to paper PMC6695210, “Bipartite interface of the measles virus phosphoprotein X domain with the large polymerase protein regulates viral polymerase dynamics” (PLoS Pathogens, 2019):

B1: MeV phosphoprotein (P), wild type [measles virus (strain IC-B)] / MeV L_(1708), C-terminally truncated large polymerase protein lacking the methyltransferase domain [measles virus (strain IC-B)] (parent complex)
chain 1: MAEEQARHVKNGLECIRALKAEPIGSLAVEEAMAAWSEISDNPGQDRATCKEEEAGSSGLSKPCLSAIGSTEGGAPRIRGQGSGESDDDAETLGIPSRNLQASSTGLQCYHVYDHSGEAVKGIQDADSIMVQSGLDGDSTLSGGDDESENSDVDIGEPDTEGYAITDRGSAPISMGFRASDVETAEGGEIHELLKLQSRGNNFPKLGKTLNVPPPPNPSRASTSETPIKKGTDARLASFGTEIASLLTGGATQCARKSPSEPSGPGAPAGNVPECVSNAALIQEWTPESGTTISPRSQNNEEGGDYYDDELFSDVQDIKTALAKIHEDNQKIISKLESLLLLKGEVESIKKQINRQNISISTLEGHLSSIMIAIPGLGKDPNDPTADVELNPDLKPIIGRDSGRALAEVLKKPVASRQLQGMTNGRTSSRGQLLKEFQLKPIGKKVSSAVGFVPDTGPASRSVIRSIIKSSRLEEDRKRYLMTLLDDIKGANDLAKFHQMLMKIIMK
chain 2: MDSLSVNQILYPEVHLDSPIVTNKIVAILEYARVPHAYSLEDPTLCQNIKHRLKNGFSNQMIINNVEVGNVIKSKLRSYPAHSHIPYPNCNQDLFNIEDKESTRKIRELLKKGNSLYSKVSDKVFQCLRDTNSRLGLGSELREDIKEKIINLGVYMHSSQWFEPFLFWFTVKTEMRSVIKSQTHTCHRRRHTPVFFTGSSVELLISRDLVAIISKESQHVYYLTFELVLMYCDVIEGRLMTETAMTIDARYAELLGRVRYMWKLIDGFFPALGNPTYQIVAMLEPLSLAYLQLRDITVELRGAFLNHCFTEIHDVLDQNGFSDEGTYHELIEALDYIFITDDIHLTGEIFSFFRSFGHPRLEAVTAAENVRKYMNQPKVIVYETLMKGHAIFCGIIINGYRDRHGGSWPPLTLPLHAADTIRNAQASGEGLTHEQCVDNWKSFAGVRFGCFMPLSLDSDLTMYLKDKALAALQREWDSVYPKEFLRYDPPKGTGSRRLVDVFLNDSSFDPYDMIMYVVSGAYLHDPEFNLSYSLKEKEIKETGRLFAKMTYKMRACQVIAENLISNGIGKYFKDNGMAKDEHDLTKALHTLAVSGVPKDLKESHRGGPVLKTYSRSPVHTSTRNVKAEKGFVGFPHVIRQNQDTDHPENIETYETVSAFITTDLKKYCLNWRYETISLFAQRLNEIYGLPSFFQWLHKRLETSVLYVSDPHCPPDLDAHVPLCKVPNDQIFIKYPMGGIEGYCQKLWTISTIPYLYLAAYESGVRIASLVQGDNQTIAVTKRVPSTWPYNLKKREAARVTRDYFVILRQRLHDIGHHLKANETIVSSHFFVYSKGIYYDGLLVSQSLKSIARCVFWSETIVDETRAACSNIATTMAKSIERGYDRYLAYSLNVLKVIQQILISLGFTINSTMTRDVVIPLLTNNDLLIRMALLPAPIGGMNYLNMSRLFVRNIGDPVTSSIADLKRMILASLMPEETLHQVMTQQPGDSSFLDWASDPYSANLVCVQSITRLLKNITARFVLIHSPNPMLKGLFHDDSKEEDERLAAFLMDRHIIVPRAAHEILDHSVTGARESIAGMLDTTKGLIRASMRKGGLTSRVITRLSNYDYEQFRAGMVLLTGRKRNVLIDKESCSVQLARALRSHMWARLARGRPIYGLEVPDVLESMRGHLIRRHETCVICECGSVNYGWFFVPSGCQLDDIDKETSSLRVPYIGSTTDERTDMKLAFVRAPSRSLRSAVRIATVYSWAYGDDDSSWNEAWLLARQRANVSLEELRVITPISTSTNLAHRLRDRSTQVKYSGTSLVRVARYTTISNDNLSFVISDKKVDTNFIYQQGMLLGLGVLETLFRLEKDTGSSNTVLHLHVETDCCVIPMIDHPRIPSSRKLELRAELCTNPLIYDNAPLIDRDATRLYTQSHRRHLVEFVTWSTPQLYHILAKSTALSMIDLVTKFEKDHMNEISALIGDDDINSFITEFLLIEPRLFTIYLGQCAAINWAFDVHYHRPSGKYQMGELLSSFLSRMSKGVFKVLVNALSHPKIYKKFWHCGIIEPIHGPSLDAQNLHTTVCNMVYTCYMTYLDLLLNEELEEFTFLLCESDEDVVPDRFDNIQAKHLCVLADLYCQPGTCPPIRGLRPVEKCAVLTDHIKAEARLSPAGSSWNINPIIVDHYSCSLTYLRRGSIKQIRLRVDPGFIFDALAEVNVSQPKVGSN

Variants of: B1
Assay: co-immunoprecipitation (IP anti-HA of P, immunoblot of L anti-FLAG, densitometry); lysates of transiently transfected cells, lysed 24 hours after transfection; IP at 4°C; parent: 100; read off a plot

| Variant | percent of parent |
| --- | --- |
| chain 1 S462R | ~75 % of wild type P |
| chain 1 D493K | ~150 % of wild type P |
| chain 1 K469E | ~75 % of wild type P |
| chain 1 D486R | ~130 % of wild type P |
| chain 1 R465E | ~62 % of wild type P |
| chain 1 F497D | ~120 % of wild type P |
| chain 1 R479E | ~82 % of wild type P |
| chain 1 T483R | ~85 % of wild type P |

Variants of: B1
Assay: as above
Remark: another data set of the same source

| Variant | percent of parent |
| --- | --- |
| chain 1 G431A, chain 1 Q432A, chain 1 L433A, chain 1 L434A | ~85 % of wild type P |
| chain 1 D383A, chain 1 P384A, chain 1 T385A | ~55 % of wild type P |
| chain 1 S447A, chain 1 S448A, chain 1 V450A | ~92 % of wild type P |
| chain 1 L377A, chain 1 G378A, chain 1 K379A, chain 1 D380A | ~78 % of wild type P |
| chain 1 R404A, chain 1 L406A | ~14 % of wild type P |
| chain 1 D401A, chain 1 S402A, chain 1 G403A, chain 1 R404A | ~19 % of wild type P |
| chain 1 K440A, chain 1 P441A, chain 1 I442A, chain 1 G443A | ~75 % of wild type P |
| chain 1 P396A, chain 1 I397A, chain 1 I398A, chain 1 G399A | ~22 % of wild type P |
| chain 1 E408A, chain 1 V409A, chain 1 L410A | ~30 % of wild type P |

Variants of: B1
Assay: as above
Remark: another data set of the same source

| Variant | percent of parent |
| --- | --- |
| chain 1 S369A, chain 1 I370A, chain 1 M371A, chain 1 I372A | ~14 % of wild type P |
| chain 1 G365A, chain 1 H366A, chain 1 L367A, chain 1 S368A | ~12 % of wild type P |
| chain 1 MAEEQARHVKNGLECIRALKAEPIGSLAVEEAMAAWSEISDNPGQDRATCKEEEAGSSGLSKPCLSAIGSTEGGAPRIRGQGSGESDDDAETLGIPSRNLQASSTGLQCYHVYDHSGEAVKGIQDADSIMVQSGLDGDSTLSGGDDESENSDVDIGEPDTEGYAITDRGSAPISMGFRASDVETAEGGEIHELLKLQSRGNNFPKLGKTLNVPPPPNPSRASTSETPIKKGTDARLASFGTEIASLLTGGATQCARKSPSEPSGPGAPAGNVPECVSNAALIQEWTPESGTTISPRSQNNEEGGDYYDDELFSDVQDIKTALAKIHEDNQKIISKLESLLLLKGEVESIKKQINRQNISIAAAAGHLSSIMIAIPGLGKDPNDPTADVELNPDLKPIIGRDSGRALAEVLKKPVASRQLQGMTNGRTSSRGQLLKEFQLKPIGKKVSSAVGFVPDTGPASRSVIRSIIKSSRLEEDRKRYLMTLLDDIKGANDLAKFHQMLMKIIMK [chain 1 S361A, chain 1 T362A, chain 1 L363A, chain 1 E364A] | ~3 % of wild type P |
| chain 1 I374A, chain 1 P375A, chain 1 G376A, chain 1 L377A | ~9 % of wild type P |

Variants of: B1
Assay: as above
Remark: another data set of the same source

| Variant | percent of parent |
| --- | --- |
| chain 1 S361A, chain 1 T362A | ~95 % of wild type P |
| chain 1 L363A | ~38 % of wild type P |
| chain 1 L363A, chain 1 E364A | ~20 % of wild type P |
| chain 1 S361A | ~85 % of wild type P |
| chain 1 E364A | ~44 % of wild type P |

Variants of: B1
Assay: as above
Remark: another data set of the same source

| Variant | percent of parent |
| --- | --- |
| chain 1 A495R | ~78 % of wild type P |
| chain 1 M502R | ~120 % of wild type P |
| chain 1 S470R | ~65 % of wild type P |
| chain 1 V463R | ~5 % of wild type P |
| chain 1 A491R | ~120 % of wild type P |
| chain 1 S466R | ~20 % of wild type P |
| chain 1 H498E | ~18 % of wild type P |
